We go through two substances from IntAct's records for PubMed 20562859.

Experiment [1] concerns the target atg5_human ATG5 (UniProt Q9H1Y0).
In experiment [2] the target is T1, rasf5_human RASSF5 (UniProt Q8WWW0).
T1 sequence: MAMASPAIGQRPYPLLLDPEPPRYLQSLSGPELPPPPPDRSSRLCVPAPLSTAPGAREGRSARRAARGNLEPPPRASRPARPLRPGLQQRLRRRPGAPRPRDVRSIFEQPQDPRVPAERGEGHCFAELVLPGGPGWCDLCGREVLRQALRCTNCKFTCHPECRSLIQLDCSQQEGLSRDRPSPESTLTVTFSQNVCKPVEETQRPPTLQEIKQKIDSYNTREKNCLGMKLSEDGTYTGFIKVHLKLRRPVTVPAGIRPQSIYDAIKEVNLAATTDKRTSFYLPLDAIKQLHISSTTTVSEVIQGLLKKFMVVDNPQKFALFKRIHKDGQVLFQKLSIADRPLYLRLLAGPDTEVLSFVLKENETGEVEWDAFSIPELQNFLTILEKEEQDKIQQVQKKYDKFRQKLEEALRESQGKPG

In experiment [3] the target is uba5_human UBA5 (UniProt Q9GZZ9).
Chain of uba5_human UBA5 (Q9GZZ9 whole entry): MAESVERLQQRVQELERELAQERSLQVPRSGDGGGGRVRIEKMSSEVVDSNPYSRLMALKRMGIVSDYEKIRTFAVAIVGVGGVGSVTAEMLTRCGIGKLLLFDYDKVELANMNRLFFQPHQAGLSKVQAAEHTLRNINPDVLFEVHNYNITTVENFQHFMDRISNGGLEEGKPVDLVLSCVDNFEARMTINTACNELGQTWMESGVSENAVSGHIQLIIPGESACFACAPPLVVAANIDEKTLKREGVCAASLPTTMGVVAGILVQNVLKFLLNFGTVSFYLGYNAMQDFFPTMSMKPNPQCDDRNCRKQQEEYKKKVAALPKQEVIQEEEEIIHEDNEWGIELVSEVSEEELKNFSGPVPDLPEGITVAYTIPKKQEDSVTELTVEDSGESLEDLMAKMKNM
Experiment [4] addresses T2, fyco1_human FYCO1 (UniProt Q9BQS8).
T2 sequence: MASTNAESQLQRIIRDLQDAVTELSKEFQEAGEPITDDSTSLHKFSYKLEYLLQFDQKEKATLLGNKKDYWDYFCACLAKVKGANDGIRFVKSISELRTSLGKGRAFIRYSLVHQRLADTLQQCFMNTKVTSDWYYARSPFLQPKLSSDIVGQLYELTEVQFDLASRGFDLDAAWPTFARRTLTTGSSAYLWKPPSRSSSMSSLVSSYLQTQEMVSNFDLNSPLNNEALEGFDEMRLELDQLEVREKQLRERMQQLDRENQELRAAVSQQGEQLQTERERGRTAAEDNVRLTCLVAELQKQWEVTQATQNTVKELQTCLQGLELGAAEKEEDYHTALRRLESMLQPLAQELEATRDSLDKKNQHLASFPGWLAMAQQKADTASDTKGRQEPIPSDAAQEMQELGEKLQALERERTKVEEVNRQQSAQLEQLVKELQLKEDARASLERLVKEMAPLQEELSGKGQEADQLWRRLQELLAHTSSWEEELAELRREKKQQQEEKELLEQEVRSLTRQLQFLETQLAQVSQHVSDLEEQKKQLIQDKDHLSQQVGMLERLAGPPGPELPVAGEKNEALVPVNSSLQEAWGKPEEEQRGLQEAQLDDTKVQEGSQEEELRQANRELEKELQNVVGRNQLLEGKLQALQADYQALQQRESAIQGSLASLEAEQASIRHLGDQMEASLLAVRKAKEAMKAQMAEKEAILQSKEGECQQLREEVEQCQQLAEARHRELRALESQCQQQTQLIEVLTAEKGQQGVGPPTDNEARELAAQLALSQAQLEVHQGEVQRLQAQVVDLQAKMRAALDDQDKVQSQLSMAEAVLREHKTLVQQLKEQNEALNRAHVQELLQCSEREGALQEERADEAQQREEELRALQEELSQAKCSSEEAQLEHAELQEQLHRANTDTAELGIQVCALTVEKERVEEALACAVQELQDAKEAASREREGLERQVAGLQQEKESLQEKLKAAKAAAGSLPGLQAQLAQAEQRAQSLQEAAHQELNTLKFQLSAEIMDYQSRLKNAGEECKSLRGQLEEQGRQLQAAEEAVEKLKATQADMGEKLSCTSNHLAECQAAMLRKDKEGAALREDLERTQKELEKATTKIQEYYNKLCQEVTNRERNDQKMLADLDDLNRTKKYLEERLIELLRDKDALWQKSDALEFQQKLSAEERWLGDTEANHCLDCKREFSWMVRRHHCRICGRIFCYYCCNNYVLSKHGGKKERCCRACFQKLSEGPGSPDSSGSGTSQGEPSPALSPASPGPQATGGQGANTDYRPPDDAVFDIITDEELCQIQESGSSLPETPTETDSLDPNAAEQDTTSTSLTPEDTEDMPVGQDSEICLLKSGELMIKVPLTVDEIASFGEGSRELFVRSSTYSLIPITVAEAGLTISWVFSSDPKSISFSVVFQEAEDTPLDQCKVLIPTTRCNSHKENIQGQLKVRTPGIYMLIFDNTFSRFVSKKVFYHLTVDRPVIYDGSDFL

Experiment [5] concerns the target T3, atg13_human ATG13 (UniProt O75143).
T3 sequence: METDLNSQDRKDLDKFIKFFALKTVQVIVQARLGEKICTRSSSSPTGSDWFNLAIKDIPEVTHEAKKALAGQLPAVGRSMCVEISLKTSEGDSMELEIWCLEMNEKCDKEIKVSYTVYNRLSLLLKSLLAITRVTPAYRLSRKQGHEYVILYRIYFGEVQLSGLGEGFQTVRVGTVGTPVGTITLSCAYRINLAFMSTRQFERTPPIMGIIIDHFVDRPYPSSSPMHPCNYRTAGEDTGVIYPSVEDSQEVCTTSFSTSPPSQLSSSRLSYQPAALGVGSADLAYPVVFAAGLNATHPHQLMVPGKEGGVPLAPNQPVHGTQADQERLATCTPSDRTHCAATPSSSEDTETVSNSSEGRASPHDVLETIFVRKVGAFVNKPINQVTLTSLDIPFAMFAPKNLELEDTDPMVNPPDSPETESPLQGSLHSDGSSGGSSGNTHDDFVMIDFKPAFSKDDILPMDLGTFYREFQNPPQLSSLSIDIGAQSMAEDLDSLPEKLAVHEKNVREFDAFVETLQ

Chain of atg5_human ATG5 (Q9H1Y0 whole entry): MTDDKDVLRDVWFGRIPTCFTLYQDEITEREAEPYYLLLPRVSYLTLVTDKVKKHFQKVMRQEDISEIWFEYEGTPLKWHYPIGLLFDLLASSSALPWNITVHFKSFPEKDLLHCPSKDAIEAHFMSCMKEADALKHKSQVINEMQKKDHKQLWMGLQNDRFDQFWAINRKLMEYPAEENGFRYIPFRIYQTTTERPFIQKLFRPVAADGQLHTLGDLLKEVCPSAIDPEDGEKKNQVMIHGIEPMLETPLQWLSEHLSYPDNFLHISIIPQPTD

For the substance “Microtubule-associated protein 1 light chain 3 beta (Homo sapiens) (from UniProt Q9GZQ8) F52A;L53A”, the “effect of a mutation on the interaction” value in experiment [1] and in experiment [2] was “increasing interaction” in each case.

As for “Microtubule-associated protein 1 light chain 3 beta (Homo sapiens) (from UniProt Q9GZQ8) R69A”, the “effect of a mutation on the interaction” value is given as “disrupting interaction” in experiment [3], “decreasing interaction” in experiment [4] and “decreasing interaction” in experiment [5].
